In patent publication US20150258192A1, “COMPOSITIONS AND METHODS FOR PREVENTING OR TREATING CHRONIC LUNG ALLOGRAFT DYSFUNCTION (CLAD) AND IDIOPATHIC PULMONARY FIBROSIS (IPF)” (priority 2014, published 2015):
No end group written: not given here.

Tests used:
Assay in all cases: Kinase Profiling Assay
Format in all cases: biochemical
Conditions in all cases: peptide 100 μM
BrSK2(h) = biological target: T1, BrSK2(h) (Homo sapiens, UniProt Q8IWQ3)
T1 sequence (Q8IWQ3 1-736): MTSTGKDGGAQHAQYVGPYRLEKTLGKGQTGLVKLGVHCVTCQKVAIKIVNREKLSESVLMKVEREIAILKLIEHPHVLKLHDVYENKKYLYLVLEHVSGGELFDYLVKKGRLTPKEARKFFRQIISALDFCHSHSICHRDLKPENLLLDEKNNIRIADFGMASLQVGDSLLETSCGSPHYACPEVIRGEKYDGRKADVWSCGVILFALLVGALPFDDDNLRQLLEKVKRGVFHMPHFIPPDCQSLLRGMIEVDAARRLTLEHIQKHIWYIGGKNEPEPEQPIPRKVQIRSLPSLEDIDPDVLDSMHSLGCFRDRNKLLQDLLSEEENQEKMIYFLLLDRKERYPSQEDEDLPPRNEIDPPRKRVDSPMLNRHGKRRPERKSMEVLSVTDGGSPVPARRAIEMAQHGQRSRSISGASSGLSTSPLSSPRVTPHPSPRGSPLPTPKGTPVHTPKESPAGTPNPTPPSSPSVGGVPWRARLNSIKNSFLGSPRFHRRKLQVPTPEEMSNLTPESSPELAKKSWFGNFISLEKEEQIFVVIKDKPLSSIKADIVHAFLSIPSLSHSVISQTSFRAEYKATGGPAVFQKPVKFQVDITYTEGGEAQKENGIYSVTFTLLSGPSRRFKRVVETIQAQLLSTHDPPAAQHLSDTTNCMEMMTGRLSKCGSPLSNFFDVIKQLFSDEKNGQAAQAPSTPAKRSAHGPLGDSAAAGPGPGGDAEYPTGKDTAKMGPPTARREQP
Procedure, shortened: (§1)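 Specificity of MK2 inhibitory peptides is assessed against a panel of 266 human kinases. Kinase transfers a radiolabeled phosphate from ATP onto a positively charged substrate, which is trapped on a negatively charged filter and quantified by scintillation counting against full-activity control; duplicate determinations.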

DAPK2(h) = DAPK2(h) (Homo sapiens, UniProt Q9UIK4)
Sequence of DAPK2(h) (Q9UIK4 whole entry): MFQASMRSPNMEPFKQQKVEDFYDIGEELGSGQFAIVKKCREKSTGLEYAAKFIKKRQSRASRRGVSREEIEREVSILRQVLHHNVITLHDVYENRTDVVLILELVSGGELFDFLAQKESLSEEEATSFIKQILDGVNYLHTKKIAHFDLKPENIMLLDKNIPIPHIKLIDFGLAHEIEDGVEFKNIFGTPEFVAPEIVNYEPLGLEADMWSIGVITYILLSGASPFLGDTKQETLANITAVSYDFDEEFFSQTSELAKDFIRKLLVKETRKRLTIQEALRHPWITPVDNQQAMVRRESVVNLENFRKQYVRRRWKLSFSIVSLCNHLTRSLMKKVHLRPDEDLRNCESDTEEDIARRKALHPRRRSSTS
Procedure, shortened: as §1

EGFR(h) = EGFR(h) (Homo sapiens, UniProt P00533)
Procedure, shortened: as §1

Flt3(D835Y)(h) = Flt3(D835Y)(h) (Homo sapiens, UniProt P36888, D835Y)
Procedure, shortened: as §1

GSK3α(h) = biological target: T2, GSK3α(h) (Homo sapiens, UniProt P49840)
T2 construct: purchased Millipore
T2 sequence (P49840 whole entry): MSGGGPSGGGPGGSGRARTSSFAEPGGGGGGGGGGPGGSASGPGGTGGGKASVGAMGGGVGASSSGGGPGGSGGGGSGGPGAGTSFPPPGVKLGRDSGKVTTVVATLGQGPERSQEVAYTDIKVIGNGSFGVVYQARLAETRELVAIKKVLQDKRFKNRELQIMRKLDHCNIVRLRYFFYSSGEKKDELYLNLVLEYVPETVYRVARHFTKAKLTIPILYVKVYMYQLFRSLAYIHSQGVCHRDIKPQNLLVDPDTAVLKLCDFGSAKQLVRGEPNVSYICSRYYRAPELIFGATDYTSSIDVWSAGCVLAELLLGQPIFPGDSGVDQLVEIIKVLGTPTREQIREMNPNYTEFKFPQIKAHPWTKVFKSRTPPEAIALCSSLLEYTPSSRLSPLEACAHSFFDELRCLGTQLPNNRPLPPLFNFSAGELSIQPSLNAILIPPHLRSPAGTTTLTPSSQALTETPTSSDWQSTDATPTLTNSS
Procedure, shortened: as §1

PTK5(h) = PTK5(h) (Homo sapiens, UniProt P42685)
Sequence of PTK5(h) (P42685 whole entry): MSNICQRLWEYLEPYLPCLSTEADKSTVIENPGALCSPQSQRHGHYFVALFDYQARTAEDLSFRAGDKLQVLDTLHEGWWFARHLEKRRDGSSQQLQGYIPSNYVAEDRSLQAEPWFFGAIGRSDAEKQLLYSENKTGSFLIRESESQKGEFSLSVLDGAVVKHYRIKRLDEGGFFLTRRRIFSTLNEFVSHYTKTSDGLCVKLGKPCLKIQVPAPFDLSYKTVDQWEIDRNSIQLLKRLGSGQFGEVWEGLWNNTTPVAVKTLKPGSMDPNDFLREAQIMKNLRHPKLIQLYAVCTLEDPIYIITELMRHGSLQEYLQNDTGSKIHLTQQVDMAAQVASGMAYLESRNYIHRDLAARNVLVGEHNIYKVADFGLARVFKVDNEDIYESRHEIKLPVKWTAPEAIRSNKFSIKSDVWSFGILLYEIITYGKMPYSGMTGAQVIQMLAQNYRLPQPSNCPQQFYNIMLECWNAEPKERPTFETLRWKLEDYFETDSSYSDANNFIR
Procedure, shortened: as §1

Src(1-530)(h) = biological target: T3, Src(1-530)(h) (Homo sapiens, UniProt P12931)
T3 construct: Src(1-530)(h); purchased Millipore
Procedure, shortened: as §1

mTOR(h) = biological target: T4, mTOR(h) (Homo sapiens, UniProt P42345)
T4 construct: purchased Millipore
Procedure, shortened: as §1

JAK3(h) = biological target: T5, JAK3(h) (Homo sapiens, UniProt P52333)
T5 construct: purchased Millipore
T5 sequence (P52333 1-1124): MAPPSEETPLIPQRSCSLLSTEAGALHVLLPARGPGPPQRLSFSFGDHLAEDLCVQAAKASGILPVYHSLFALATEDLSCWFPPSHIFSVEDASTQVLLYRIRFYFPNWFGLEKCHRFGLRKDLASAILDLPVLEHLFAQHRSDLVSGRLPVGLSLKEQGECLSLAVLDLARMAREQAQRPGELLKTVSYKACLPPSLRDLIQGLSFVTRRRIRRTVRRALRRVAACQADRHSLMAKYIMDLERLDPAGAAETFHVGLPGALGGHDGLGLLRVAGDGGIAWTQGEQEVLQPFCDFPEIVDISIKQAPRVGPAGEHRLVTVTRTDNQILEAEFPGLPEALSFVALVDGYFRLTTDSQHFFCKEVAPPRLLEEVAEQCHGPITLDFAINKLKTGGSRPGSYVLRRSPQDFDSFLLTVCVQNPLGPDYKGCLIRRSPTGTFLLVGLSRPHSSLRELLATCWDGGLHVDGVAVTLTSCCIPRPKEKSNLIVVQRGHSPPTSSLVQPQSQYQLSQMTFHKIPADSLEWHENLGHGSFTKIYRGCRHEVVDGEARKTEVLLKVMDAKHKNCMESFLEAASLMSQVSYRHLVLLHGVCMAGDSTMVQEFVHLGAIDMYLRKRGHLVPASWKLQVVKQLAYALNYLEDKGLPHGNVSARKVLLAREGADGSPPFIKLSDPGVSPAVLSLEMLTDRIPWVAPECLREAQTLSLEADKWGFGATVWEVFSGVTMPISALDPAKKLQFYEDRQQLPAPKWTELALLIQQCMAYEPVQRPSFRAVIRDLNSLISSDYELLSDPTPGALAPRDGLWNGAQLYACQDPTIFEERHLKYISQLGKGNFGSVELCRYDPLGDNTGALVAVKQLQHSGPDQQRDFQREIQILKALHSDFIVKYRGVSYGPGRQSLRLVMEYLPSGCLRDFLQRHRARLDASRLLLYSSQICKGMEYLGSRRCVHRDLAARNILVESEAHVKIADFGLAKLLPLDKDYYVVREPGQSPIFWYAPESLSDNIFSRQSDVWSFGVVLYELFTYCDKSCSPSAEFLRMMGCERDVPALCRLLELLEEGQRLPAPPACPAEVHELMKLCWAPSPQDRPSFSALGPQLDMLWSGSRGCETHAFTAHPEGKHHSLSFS
Procedure, shortened: as §1

Row | Sequence | % activity (BrSK2(h)) | % activity (DAPK2(h)) | % activity (EGFR(h)) | % activity (Flt3(D835Y)(h)) | % activity (GSK3α(h)) | % activity (PTK5(h)) | % activity (Src(1-530)(h)) | % activity (mTOR(h)) | % activity (JAK3(h))
1 | FAKLAARLYRKALARQLGVAA [MMI-0300] | 83% | 32% | 21% | 80% | 157% | 132% | 23% | 91% | 
2 | HRRIKAWLKKIKALARQLGVAA (Mammal) [MMI-0500] | 84% | 3% | -1% | 65% | 175% | 96% | 21% | 135% | 95%
3 | KAFAKLAARLYRKALARQLGVAA [MMI-0400] | 86% | 16% | 16% | 71% | 164% | 129% | 19% | 93% | 122%
4 | YARAAARQARAKALARQLGVAA [MMI-0100] | 129% |  |  | 120% |  | 135% |  |  | 150%
5 | YARAAARQARAKALNRQLGVA (Mammal) [MMI-0200] |  | 92% | 83% |  |  | 108% | 75% | 110% | 
